Results from patent publication US20240254258A1 (TRELLIS BIOSCIENCE, published 2024).

B1: TRL10005 (antibody, IgG1, V domains shown)
VH: QVQLVESGGGLVKPGGSLRLSCAASGFTFNDHYMTWIRQAPGKGLEWISYISSSGGTIFYAESVKGRFTISRDNANNILFLQMNSLRAEDTAVYYCARGALRFLEWSHLGSWGQGTLVTVSS
VL: DIVLTQSPGTLSLSPGERATLSCRASQRVSSSYLAWFQQKPGQAPRLLIYGASTRATGIPDRFSGSGSGTDFTLTISRLEPEDFAVYYCQQYGMSSWTFGQGTKVEIKR
notes: Native human mAb from donor 236
B2: TRL10014 (antibody, IgG1, V domains shown)
VH: QVQLVESGGGLVKPGGSLRLSCTASGFSFSDSYMNWIRQAPGKGLEWLAYISTSATYTYSADSVKGRFTISRDNAKNSLYLQMNSLRDEDTAVYYCAREGLFYDGLYGMDVWGQGTTVIVSS
VL: DILMTQSPLSLPVTPGEPASISCRSSQSLLHSNGYNYLNWYLQKPGQSPQLLIYLGSNRASGVPDRFSGSGSGTDFTLKISSVEAEDVGVYYCMQALHTPRTFGQGTKVEIKR
notes: Native human mAb from donor 210; also called TRL100014
B3: TRL10051 (antibody, IgG1, V domains shown)
VH: QVQLVESGGGLVQPGGSLRLSCAASGFTFSSYVMSWVRQAPGKGLEWVSSIRVSGDRAHYADSVKGRFTVSRDDSKNTVYLQMNSLRVEDTAVYYCVKDQAERLLRAVTTHFDYWGQGALVTVSS
VL: DIVMTQSPLSSPVTLGQPASISCRSSQSLVHSDGNTYLSWLQQRPGQPPRLLIYKVSRRFSGVPDRFSGSGAGTDFTLKISRVEAEDVGIYYCMQASQFPRTFGQGTKVEIKR
notes: Native human mAb from donor 223

Target: T1, ALK Extracellullar Domain (ECD), generated by Trellis in mammalian cells (human, UniProt Q9UM73 19-1038)
T1 construct: extracellular domain; Recombinant ECD made in-house in mammalian cells; also called ALK ECD; extracellular domain of ALK
T1 sequence (Q9UM73 19-1038): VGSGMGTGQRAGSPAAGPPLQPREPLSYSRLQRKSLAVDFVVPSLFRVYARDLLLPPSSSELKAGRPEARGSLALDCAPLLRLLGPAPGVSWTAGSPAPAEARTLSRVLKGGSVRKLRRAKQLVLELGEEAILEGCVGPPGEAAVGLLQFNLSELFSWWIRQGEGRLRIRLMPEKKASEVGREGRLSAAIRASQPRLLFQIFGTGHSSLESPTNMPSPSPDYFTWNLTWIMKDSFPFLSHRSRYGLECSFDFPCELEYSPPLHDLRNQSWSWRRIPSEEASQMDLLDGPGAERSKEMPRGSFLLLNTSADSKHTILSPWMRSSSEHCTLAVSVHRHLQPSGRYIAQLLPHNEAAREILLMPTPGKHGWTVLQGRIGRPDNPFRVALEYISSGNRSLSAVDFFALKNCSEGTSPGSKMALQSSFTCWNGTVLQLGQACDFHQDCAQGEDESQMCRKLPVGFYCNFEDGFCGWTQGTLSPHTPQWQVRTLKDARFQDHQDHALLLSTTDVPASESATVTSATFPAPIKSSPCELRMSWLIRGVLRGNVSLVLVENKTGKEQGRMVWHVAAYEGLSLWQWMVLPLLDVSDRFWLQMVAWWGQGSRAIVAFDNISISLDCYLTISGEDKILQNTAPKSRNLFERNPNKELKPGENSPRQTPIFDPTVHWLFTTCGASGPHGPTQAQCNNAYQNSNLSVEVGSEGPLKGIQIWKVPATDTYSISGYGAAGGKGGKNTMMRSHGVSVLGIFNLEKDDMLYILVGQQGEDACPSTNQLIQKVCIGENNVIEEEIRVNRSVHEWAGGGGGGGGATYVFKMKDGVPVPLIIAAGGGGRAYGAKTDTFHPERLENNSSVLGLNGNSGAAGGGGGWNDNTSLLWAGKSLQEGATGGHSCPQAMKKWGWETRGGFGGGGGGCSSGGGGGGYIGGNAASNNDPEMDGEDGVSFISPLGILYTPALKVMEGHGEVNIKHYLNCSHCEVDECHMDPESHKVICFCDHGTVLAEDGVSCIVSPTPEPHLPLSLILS
Assay: adsorption ELISA on ALK ECD, serial dilutions, estimate of binding affinity
Protocol: Purified mAbs were tested in adsorption ELISA using ALK Extracellullar Domain (ECD), generated by Trellis in mammalian cells. TRL10001 is of particular interest based on its sub-nM affinity to the target.

Binder	Affinity
B1	1 nM
B2	75 nM
B3	1 nM
